Data from patent CN116284371A (SUZHOU FANGKE BIOTECHNOLOGY CO LTD; SUZHOU INST OF SYSTEMS …, dated 2023).

Target: T1, 重组蛋白MDA5 (MDA5抗原蛋白) (Homo sapiens (Human), UniProt Q9BYX4 1-1025)
T1 construct: Recombinant MDA5 from a synthetic gene in pFastBac1 (EcoRI/XbaI); also called MDA5蛋白
T1 sequence: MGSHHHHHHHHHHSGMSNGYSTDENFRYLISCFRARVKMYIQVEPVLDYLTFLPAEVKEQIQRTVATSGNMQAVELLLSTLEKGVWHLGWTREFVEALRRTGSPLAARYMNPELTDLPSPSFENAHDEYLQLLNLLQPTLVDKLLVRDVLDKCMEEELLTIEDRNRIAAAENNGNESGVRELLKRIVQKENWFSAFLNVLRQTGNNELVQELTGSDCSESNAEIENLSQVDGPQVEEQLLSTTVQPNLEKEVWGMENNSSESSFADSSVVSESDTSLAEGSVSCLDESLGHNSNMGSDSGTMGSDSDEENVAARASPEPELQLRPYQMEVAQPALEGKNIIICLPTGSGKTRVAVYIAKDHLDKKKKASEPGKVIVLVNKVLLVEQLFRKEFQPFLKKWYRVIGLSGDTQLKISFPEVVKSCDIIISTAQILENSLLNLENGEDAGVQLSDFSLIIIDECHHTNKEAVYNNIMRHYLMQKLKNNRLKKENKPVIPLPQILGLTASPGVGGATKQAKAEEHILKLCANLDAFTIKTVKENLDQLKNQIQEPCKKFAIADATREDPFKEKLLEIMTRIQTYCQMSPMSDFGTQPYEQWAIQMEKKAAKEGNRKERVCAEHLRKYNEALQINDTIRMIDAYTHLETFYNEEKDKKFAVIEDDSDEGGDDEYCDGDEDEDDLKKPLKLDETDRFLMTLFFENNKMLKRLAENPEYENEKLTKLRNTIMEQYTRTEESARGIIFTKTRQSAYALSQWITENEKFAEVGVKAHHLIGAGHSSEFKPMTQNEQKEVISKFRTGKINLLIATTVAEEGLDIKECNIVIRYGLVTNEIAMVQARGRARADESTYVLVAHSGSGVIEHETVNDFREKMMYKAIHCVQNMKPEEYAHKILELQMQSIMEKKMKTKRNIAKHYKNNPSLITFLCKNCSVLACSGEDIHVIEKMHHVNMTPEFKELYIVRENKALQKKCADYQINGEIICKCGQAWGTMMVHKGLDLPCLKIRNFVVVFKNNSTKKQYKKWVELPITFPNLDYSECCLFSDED
Test: ELISA, MDA5 coated 4 ug/mL, antibody dilution series, anti-human IgG-HRP

binding result: binds
B1: 76F-MDA5-R2P1-G5抗体 (antibody, human IgG1, kappa, V domains shown)
VH: QVQLVESGGGVVQPGRSLRLSCAASGFTFSSYAMHWVRQAPGKGLEWVAVISYDGSNKYYADSVKGRFTISRDNSKNTLYLQMNSLRAEDTAVYYCARHRRYAFDIWGQGTTVTVSS
VL: QAVLTQPASVSGSPGQSITISCTGTSSDVGGYNYVSWYQQHPGKAPKLMIYDVSKRPSGVSNRFSGSKSGNTASLTISGLQAEDEADYYCSSYVVSYTWVFGGGTKVTVLR
notes: The printed heavy and light chain entries appear to start with a leader peptide
